Reference: publication PMC7319042 (Structure (London, England : 1993), 2018)

Legend:
[1] = biological target: Rev (Human immunodeficiency virus 1) (UniProt P04325); details: cited from earlier work
[2] = biological target: Rev116 (HIV-1, UniProt P04616 1-116); assay: analytical ultracentrifugation
[3] = biological target: HIV-1 Rev^116 (full-length wild-type Rev) (HIV-1, UniProt P04618); assay: light scattering at 320 nm of the
[4] = biological target: HIV-1 Rev^93 (C-terminally truncated Rev, amino acids 1-93) (HIV-1, UniProt P04618); assay: crystal structure
[5] = biological target: T1, HIV-1 Rev^116 (full-length wild-type Rev) (HIV-1), P04618; assay: AUC; details: remark: other sources report otherwise
T1 chain: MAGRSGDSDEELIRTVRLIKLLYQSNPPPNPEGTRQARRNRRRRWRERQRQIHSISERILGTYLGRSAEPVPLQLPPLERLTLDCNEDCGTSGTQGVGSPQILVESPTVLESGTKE

[6] = biological target: T1, HIV-1 Rev^116 (full-length wild-type …); assay: light scattering at 320 nm of thermally induced assembly; details: remark: other sources report otherwise

## Rev (from UniProt P04325)
[1]
  Kd: 1 µM

## GGCUGGACUCGUACUUCGGUACUGGAGAAACAGCC (structured_RNA) [RBA-14]
[2]
  binding result: binds

B1: chimeric rabbit/human scFv SJS-R1 (anti-Rev single-chain variable fragment) (scFv, V domains shown)
VH: QEQLVESGGRLVTPGTALTLTCKVSGFSLSGFWLNWVRQAPGKGLEWVGAIYRGSGSEWYASWAKGRFTISDTSTTVTLKLTSPTTEDTATYFCAADTTDNGYFTIWGPGTLVTVSS
VL: ELVMTQTPSSVSEPVGGTVTIKCQASQSISSWLSWYQQKPGQPPKLLIYDASNLASGVPSRFMGSGSGTEYTLTISGVQREDAATYYCLGGYPAASYRTAFGGGTELEII
[3]
  binding result: binds
[4]
  binding result: binds

B2: HIV-1 Rev^116 (full-length wild-type Rev), P04618 1-116 (natural protein)
chain: T1 chain
[5]
  stoichiometry N: 4
[6]
  critical concentration (Cr) of polymer formation: 11 µM
